Experimental data taken from the Human Domainome abundance scans (Beltran et al. 2025).
± gives the uncertainty stated by the source.

B1: Nucleolar transcription factor 1, residues 408 to 469; numbered along this chain, P17480 (parent)
chain: KRPVSAMFIFSEEKRRQLQEERPELSESELTRLLARMWNDLSEKKKAKYKAREAALKAQSER

Variants of: B1
Test: abundance fitness (aPCA) (normalised: wild type 0, dead -1); higher = more abundant; growth selection in yeast, the domain comes from the species named
Conditions: Homo sapiens

| Variant | abundance fitness |
| --- | --- |
| M37N | -0.305 ± 0.19 |
| M37F | -0.239 ± 0.15 |
| M37L | -0.062 ± 0.041 |
| M37C | -0.193 ± 0.1 |
| A54H | -0.014 ± 0.13 |
| A54M | -0.098 ± 0.084 |
| A54F | -0.181 ± 0.089 |
| A54E | -0.063 ± 0.088 |
| K57A | -0.069 ± 0.049 |
| K57C | -0.048 ± 0.11 |
| K57N | -0.068 ± 0.11 |
| K57Y | -0.162 ± 0.12 |
| K57H | -0.044 ± 0.098 |
| S42I | -0.56 ± 0.097 |
| S42Q | -0.288 ± 0.068 |
| S42C | -0.155 ± 0.095 |
| S42T | -0.078 ± 0.049 |
| S42W | -1.06 ± 0.091 |
| A58F | -0.03 ± 0.065 |
| A58D | 0.006 ± 0.1 |
| A58K | -0.042 ± 0.05 |
| A58L | -0.025 ± 0.039 |
| A58Q | -0.002 ± 0.065 |
| A58R | -0.041 ± 0.045 |

| Variant | abundance fitness |
| --- | --- |
| A58Y | -0.173 ± 0.13 |
| A58V | -0.017 ± 0.053 |
| A58P | -0.084 ± 0.061 |
| R32H | 0.023 ± 0.083 |
| R32I | -0.007 ± 0.13 |
| R32P | -0.116 ± 0.073 |
| R32E | -0.07 ± 0.076 |
| R32G | -0.085 ± 0.045 |
| R32F | -0.188 ± 0.11 |
| R32M | -0.105 ± 0.083 |
| R32L | -0.018 ± 0.044 |
| E21Y | -0.276 ± 0.1 |
| E21W | -0.189 ± 0.064 |
| E21C | -0.076 ± 0.1 |
| E21T | 0.02 ± 0.066 |
| E27V | -0.201 ± 0.055 |
| E27K | -0.148 ± 0.089 |
| E27G | -0.09 ± 0.067 |
| E27W | -0.328 ± 0.11 |
| E27D | 0.037 ± 0.1 |
| E27P | -0.067 ± 0.066 |
| E29C | -0.223 ± 0.14 |
| E29R | -0.496 ± 0.047 |
| E29N | -0.174 ± 0.11 |

| Variant | abundance fitness |
| --- | --- |
| E29Q | -0.111 ± 0.066 |
| E29S | -0.17 ± 0.067 |
| E29T | -0.157 ± 0.089 |
| E29F | -0.603 ± 0.083 |
| E29M | -0.172 ± 0.064 |
| E29V | -0.258 ± 0.045 |
| D40F | -0.135 ± 0.13 |
| D40S | -0.107 ± 0.064 |
| E43D | -0.367 ± 0.29 |
| R16I | -0.11 ± 0.13 |
| R16C | -0.012 ± 0.069 |
| R16T | -0.078 ± 0.099 |
| R16M | -0.024 ± 0.067 |
| R16F | -0.147 ± 0.1 |
| P23V | -0.244 ± 0.067 |
| P23F | -0.402 ± 0.09 |
| P23M | -0.291 ± 0.071 |
| P23Q | -0.275 ± 0.078 |
| P23D | -0.431 ± 0.29 |
| P23T | -0.218 ± 0.068 |
| I9D | -0.484 ± 0.091 |
| I9N | -0.223 ± 0.12 |
| I9G | -0.43 ± 0.046 |
| I9P | -0.365 ± 0.079 |

| Variant | abundance fitness |
| --- | --- |
| L30W | -0.177 ± 0.042 |
| L30D | -0.65 ± 0.27 |
| L30T | -0.118 ± 0.097 |
| L30K | -0.103 ± 0.076 |
| L30F | -0.327 ± 0.1 |
| K46Y | -0.748 ± 0.084 |
| K46D | -0.896 ± 0.11 |
| R36W | -0.182 ± 0.058 |
| R36E | -0.084 ± 0.054 |
| R36L | -0.093 ± 0.046 |
| R36I | -0.101 ± 0.12 |
| R36H | -0.321 ± 0.24 |
| R36G | -0.111 ± 0.039 |
| R36Q | -0.096 ± 0.087 |
| A47N | -0.297 ± 0.23 |
| A47Q | -0.005 ± 0.054 |
| A47Y | -0.122 ± 0.15 |
| A47K | -0.029 ± 0.063 |
| A47D | -0.291 ± 0.17 |
| A47F | -0.11 ± 0.26 |
| A47R | -0.047 ± 0.05 |
| A47L | -0.064 ± 0.047 |
| F10N | -0.562 ± 0.21 |
| F10R | -0.88 ± 0.058 |

| Variant | abundance fitness |
| --- | --- |
| F10Y | 0.039 ± 0.28 |
| F10C | -1.04 ± 0.17 |
| F10E | -0.875 ± 0.084 |
| F10Q | -0.82 ± 0.072 |
| F10M | -0.522 ± 0.077 |
| F10D | -1.01 ± 0.38 |
| L56N | -0.157 ± 0.13 |
| L56K | -0.082 ± 0.051 |
| L56E | -0.045 ± 0.055 |
| L56A | -0.023 ± 0.055 |
| L56C | -0.164 ± 0.12 |
| L56Q | -0.089 ± 0.084 |
| L56H | -0.05 ± 0.11 |
| E24L | -0.209 ± 0.049 |
| E24N | -0.199 ± 0.16 |
| E24V | -0.401 ± 0.057 |
| E24I | -0.544 ± 0.085 |
| E24C | -0.225 ± 0.14 |
| E24P | -0.451 ± 0.093 |
| E24M | -0.148 ± 0.083 |
| E24R | -0.225 ± 0.06 |
| E24Q | -0.151 ± 0.1 |
| Q17V | -0.018 ± 0.057 |
| Q17N | -0.078 ± 0.22 |

| Variant | abundance fitness |
| --- | --- |
| K14D | -0.729 ± 0.085 |
| K14M | -0.044 ± 0.074 |
| K14F | -0.034 ± 0.08 |
| K14G | -0.238 ± 0.058 |
| K14I | -0.085 ± 0.15 |
| K14P | -0.956 ± 0.092 |
| K1D | 0.006 ± 0.091 |
| K1R | -0.199 ± 0.084 |
| K1H | -0.212 ± 0.1 |
| K1E | -0.139 ± 0.075 |
| K1Y | -0.105 ± 0.32 |
| K1V | -0.136 ± 0.11 |
| K1F | -0.245 ± 0.14 |
| S60N | -0.06 ± 0.11 |
| S60F | 0.031 ± 0.069 |
| S60H | -0.317 ± 0.18 |
| S60G | 0.027 ± 0.04 |
| S60E | 0 ± 0.05 |
| S60A | -0.028 ± 0.046 |
| A6V | -0.488 ± 0.065 |
| A6M | -0.418 ± 0.094 |
| A6Q | -0.331 ± 0.064 |
| A6D | -0.191 ± 0.083 |
| K48A | 0.001 ± 0.053 |

| Variant | abundance fitness |
| --- | --- |
| K48P | -0.009 ± 0.074 |
| K48R | -0.047 ± 0.05 |
| K48V | -0.101 ± 0.055 |
| K48G | -0.07 ± 0.052 |
| K48C | -0.081 ± 0.15 |
| K48L | -0.11 ± 0.051 |
| L18F | -0.085 ± 0.13 |
| L18N | -0.98 ± 0.11 |
| L18C | -0.127 ± 0.055 |
| L18S | -0.632 ± 0.058 |
| R15Y | -0.243 ± 0.16 |
| R15L | -0.168 ± 0.043 |
| R15E | -0.279 ± 0.063 |
| R15F | -0.111 ± 0.06 |
| R15V | -0.29 ± 0.052 |
| W38A | -0.892 ± 0.065 |
| W38P | -0.737 ± 0.084 |
| W38E | -0.49 ± 0.057 |
| W38Q | -0.701 ± 0.094 |
| W38C | -0.98 ± 0.092 |
| W38I | -0.867 ± 0.14 |
| W38G | -0.667 ± 0.041 |
| W38R | -1.01 ± 0.048 |
